Test results as given in US20180112192A1 (NATIONAL TAIWAN UNIVERSITY, published 2018).

Molecular target: T1, Wild-type EGFR-GFP (UniProt P00533 25-1210)
T1 construct: whole, on cells; not shown: GFP fusion
Experiment: co-localization by confocal and 3D-SIM microscopy, co-overexpression in CL1-5 cells (FIG. 1C)
Description: FIGS. 1A-1C show interaction between PINK1 and EGFR in lung adenocarcinoma cells. […] 3D-structured illumination microscopy images specifically disclosed the interaction beneath the cytoplasmic membrane (III and IV).

binding result: binds
B1: myc-fused full-length PINK1 construct (amino acids 1-581) (enzyme)
chain: MAVRQALGRGLQLGRALLLRFTGKPGRAYGLGRPGPAAGCVRGERPGWAAGPGAEPRRVGLGLPNRLRFFRQSVAGLAARLQRQFVVRAWGCAGPCGRAVFLAFGLGLGLIEEKQAESRRAVSACQEIQAIFTQKSKPGPDPLDTRRLQGFRLEEYLIGQSIGKGCSAAVYEATMPTLPQNLEVTKSTGLLPGRGPGTSAPGEGQERAPGAPAFPLAIKMMWNISAGSSSEAILNTMSQELVPASRVALAGEYGAVTYRKSKRGPKQLAPHPNIIRVLRAFTSSVPLLPGALVDYPDVLPSRLHPEGLGHGRTLFLVMKNYPCTLRQYLCVNTPSPRLAAMMLLQLLEGVDHLVQQGIAHRDLKSDNILVELDPDGCPWLVIADFGCCLADESIGLQLPFSSWYVDRGGNGCLMAPEVSTARPGPRAVIDYSKADAWAVGAIAYEIFGLVNPFYGQGKAHLESRSYQEAQLPALPESVPPDVRQLVRALLQREASKRPSARVAANVLHLSLWGEHILALKNLKLDKMVGWLLQQSAATLLANRLTEKCCVETKMKMLFLANLECETLCQAALLLCSWRAAL
notes: also called PINK1-myc; not shown: myc tag
